For this assay, the target named is T1, APBA1_2, Q02410.
T1 sequence (Q02410 742-832, limits assumed, looked up): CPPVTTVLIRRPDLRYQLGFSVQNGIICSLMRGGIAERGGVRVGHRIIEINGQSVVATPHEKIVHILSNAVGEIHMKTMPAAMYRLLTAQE
Briefly: holdup assay. Also noted: key: below the threshold = too weak to quantify, mostly under pKd 3.1 to 4.

Setting [1] is: plain residues with an end cap or a label only (N-terminal biotin on a linker: ado-ado).

Consider 67 molecules from PMC9482650, “Quantitative fragmentomics allow affinity mapping of interactomes” (Nature Communications, 2022).

For orientation: pKd means the negative decadic logarithm of the Kd, by convention in mol/L. Take HLSTRQGTCV [ATRNL1, Q5VV63]: the pKd under setting [1] stood at 4.62.

For the molecule NISARRFTLC [FAM167B, Q9BTA0], the negative logarithm of the Kd (pKd) entry under setting [1] was “below the threshold”.

Regarding QKASRNESTF [POLR1D, P0DPB6], the pKd entry under setting [1] is “below the threshold”.

IKLETKKTKL [SLC15A2, Q16348]: the pKd under setting [1] was determined as 3.67.

As for TFSRRPKTRV [CD226, Q15762], the negative-log Kd (pKd) under setting [1] stood at 3.48.

Under setting [1], VYEVPVETKF [SLC26A3, P40879] came in with a pKd of 3.58.

Regarding PGKKPEDSRV [SLCO2B1, O94956], the pKd entry under setting [1] is listed as “below the threshold”.

PALKNGQYWV [CSPG4, Q6UVK1] registered a pKd under setting [1] of 4.67.

With TKDKVQETQI [LRRC4, Q9HBW1], the pKd under setting [1] came out at 3.55.

As for EFKQTSSFLV [JAM1, Q9Y624], the pKd under setting [1] was found to be 3.5.

AHGSTRDQSI [KCNB1, Q14721]: the negative-log Kd (pKd) result under setting [1] is listed as “below the threshold”.

Molecule QKNKDREYYV [NRXN3, Q9HDB5] gave a negative logarithm of the Kd (pKd) under setting [1] of 3.99.

Turning to NSTHNLKDYV [CLDN20, P56880], the pKd under setting [1] amounted to 3.69.

Molecule KLQNPNQSVV [TYRP1, P17643] came in with a pKd under setting [1] of 3.56.

As for TKEIPNCTSV [SORCS3, Q9UPU3], the pKd under setting [1] was 4.64.

Take PEKVSNTTVV [IGSF5, Q9NSI5]: under setting [1], the pKd stood at 3.51.

Regarding FVFESRKEIL [TBPL1, P62380], under setting [1], the negative logarithm of the Kd (pKd) entry is “below the threshold”.

For the molecule MLPANYVEAI [NEB, P20929], under setting [1], the pKd result is recorded as “below the threshold”.

Regarding RSPVATATSC [DUSP5, Q16690], the pKd entry under setting [1] is listed as “below the threshold”.

As for SKQFDKNAYV [CLDN10, P78369], the pKd under setting [1] is 3.73.

Regarding GQNMTVSVVI [PRLHR, P49683], the pKd under setting [1] was 3.87.

As for KKTPVSRSHL [SLC22A3, O75751], the pKd under setting [1] was 3.77.

Regarding EAVTVESTSL [SLC22A11, Q9NSA0], the pKd under setting [1] came to 3.86.

Under setting [1], EPAKETTTNV [SLC2A3, P11169] displayed a pKd of 3.84.

Turning to SAGADSETHC [SLCO1B1, Q9Y6L6], the pKd result under setting [1] was “below the threshold”.

Under setting [1], THREVKFTSL [CD46, P15529] gave a pKd of 3.64.

Consider WAKEKQHTRL [SLC17A1, Q14916], for which, under setting [1], the pKd entry is reported as “below the threshold”.

With PKSNSSKEYV [CLDN7, O95471], the negative logarithm of the Kd (pKd) under setting [1] was found to be 3.69.

MQILSKPEFI [NPSR1, Q6W5P4] showed a pKd under setting [1] of 4.24.

QLKSGRDSTV [TMEM178A, Q8NBL3] yielded a pKd under setting [1] of 3.63.

DSEEELPTRL [GRK6, P43250] had a pKd under setting [1] of 4.16.

GVHSNDHSVV [LPAR1, Q92633]: the pKd under setting [1] turned out to be 3.63.

Consider GTMFLRETSL [GUCY1A2, P33402], for which the pKd under setting [1] was determined as 3.61.

KPDKQEEFYA [SDC3, O75056]: the negative logarithm of the Kd (pKd) entry under setting [1] is given as “below the threshold”.

Turning to LLQEEWETVM [PTH1R, Q03431], the pKd result under setting [1] is on record as “below the threshold”.

In the case of QQGLLPHSSC [TYRO3, Q06418], the negative-log Kd (pKd) entry under setting [1] is “below the threshold”.

Take HYPASPDSWV [CTNND2, Q9UQB3]: the pKd under setting [1] came out at 4.5.

In turn, FLVTEFNVML [DFNB31, Q9P202] came in with a pKd under setting [1] of 3.84.

On to DLLGGGSDSI [TNRC6B, Q9UPQ9], for which the pKd result under setting [1] is listed as “below the threshold”.

Consider PLPPEEESWV [GAS2L2, Q8NHY3], for which the pKd under setting [1] was determined as 5.02.

Under setting [1], KIEDVEITLV [FCHSD2, O94868] gave a pKd of 4.07.

Take YAEKRMLTEV [KCNA6, P17658]: under setting [1], the pKd worked out at 3.72.

Molecule NNMAFETTHF [SLC5A12, Q1EHB4] had a pKd under setting [1] of 3.62.

As for IQISELETNV [SLC1A7, O00341], the pKd under setting [1] turned out to be 3.83.

Turning to QRYPGNQTTC [CCL24, O00175], the pKd result under setting [1] is on record as “below the threshold”.

Regarding TNSKQGETTV [FZD1, Q9UP38], under setting [1], the pKd was found to be 3.74.

As for RDYTQSSSSL [GRM5, P41594], the pKd result under setting [1] is reported as “below the threshold”.

In the case of LVEEEEPMNL [HDAC7, Q8WUI4], under setting [1], the negative logarithm of the Kd (pKd) entry is recorded as “below the threshold”.

Regarding PSDSVGKDVF [EGLN1, Q9GZT9], the pKd result under setting [1] is reported as “below the threshold”.

In turn, GNDPDRGTSI [GRID2, O43424] showed a pKd under setting [1] of 3.65.

With PAALPESTHM [SLC9A3, P48764], the pKd result under setting [1] is given as “below the threshold”.

In the case of LPPPESESKV [KCNJ9, Q92806], the pKd entry under setting [1] is recorded as “below the threshold”.

With KSRPENGTVC [TMEM178B, H3BS89], the pKd entry under setting [1] is on record as “below the threshold”.

ADEMICITTL [CACNA1D, Q01668] registered a negative logarithm of the Kd (pKd) under setting [1] of 4.01.

Molecule SQPLLVHDDV [KIT, P10721] displayed a pKd under setting [1] of 3.54.

The molecule KAEEKPPSKV [SCN4B, Q8IWT1] yielded a pKd under setting [1] of 3.85.

Regarding STYCDYTIEI [FAM71C, Q8NEG0], under setting [1], the negative logarithm of the Kd (pKd) entry was “below the threshold”.

SGDGKTSVWI [GJC1, P36383] came in with a pKd under setting [1] of 4.44.

For DFKHTKSFII [JAM2, P57087], under setting [1], the pKd result is given as “below the threshold”.

On to PLATCDETSI [SEMA4F, O95754], for which, under setting [1], the pKd result is given as “below the threshold”.

The molecule VCMGDHWFDV [PRKN, O60260] registered a pKd under setting [1] of 3.92.

For the molecule DYSNLRETDI [ADRA1D, P25100], the negative-log Kd (pKd) result under setting [1] was “below the threshold”.

With NTALVESEDL [PALLS, Q8WX93;Q8WX93-1], the pKd result under setting [1] is “below the threshold”.

HDDYFYHDEL [RCN2, Q14257] had a pKd under setting [1] of 3.98.

Take SRSRRRETAL [HPV33-E6_-2P, P06427]: the pKd result (modified: phospho on T at position -2 from the C-terminal residue) was “below the threshold”.

Regarding KEKASTETEC [TRPM1, Q7Z4N2], under setting [1], the negative logarithm of the Kd (pKd) result is reported as “below the threshold”.

Turning to SSSVNVSSNL [CXCR1, P25024], the pKd result under setting [1] is “below the threshold”.
